Test results: paper PMC9482650, “Quantitative fragmentomics allow affinity mapping of interactomes” (Nature Communications, 2022)

The binders below were run against DLG5_1, Q8TDM6 (assay: holdup assay). Conditions: plain residues with an end cap or a label only (N-terminal biotin on a linker: ado-ado).
Sequence of DLG5_1, Q8TDM6 (Q8TDM6 617-713): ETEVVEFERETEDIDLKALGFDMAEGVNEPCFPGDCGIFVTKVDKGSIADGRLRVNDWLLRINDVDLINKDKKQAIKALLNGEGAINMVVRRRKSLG
Parameters: key: below the threshold = too weak to quantify, mostly under pKd 3.1 to 4
In the case of PMESGICTIV [TTC24, A2A3L6], the pKd is reported as “below the threshold”. For GCQGETEDVL [PTH2R, P49190], the pKd was “below the threshold”.

These binders were tested against T1, HTRA3, P83110 (assay: holdup assay). Conditions: plain residues with an end cap or a label only (N-terminal biotin on a linker: ado-ado).
T1 sequence (P83110 354-453, limits assumed, looked up): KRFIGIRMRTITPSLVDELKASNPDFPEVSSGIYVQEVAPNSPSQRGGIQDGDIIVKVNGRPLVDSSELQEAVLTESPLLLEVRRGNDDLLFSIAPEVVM
Parameters: key: below the threshold = too weak to quantify, mostly under pKd 3.1 to 4
PMESGICTIV [TTC24, A2A3L6] showed a pKd of 3.92. For GCQGETEDVL [PTH2R, P49190], the pKd was “below the threshold”.

Each binder was assayed against LDB3, O75112 (assay: holdup assay). Conditions: plain residues with an end cap or a label only (N-terminal biotin on a linker: ado-ado).
Sequence of LDB3, O75112 (O75112 1-94): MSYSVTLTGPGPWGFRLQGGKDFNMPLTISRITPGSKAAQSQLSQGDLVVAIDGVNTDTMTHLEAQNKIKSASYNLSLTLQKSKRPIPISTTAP
Parameters: key: below the threshold = too weak to quantify, mostly under pKd 3.1 to 4
In the case of PMESGICTIV [TTC24, A2A3L6], the pKd is reported as “below the threshold”. GCQGETEDVL [PTH2R, P49190] was tested, and the pKd was “below the threshold”.

Each binder was assayed against T2, RHPN1, Q8TCX5 (assay: holdup assay). Conditions: plain residues with an end cap or a label only (N-terminal biotin on a linker: ado-ado).
T2 sequence (Q8TCX5 508-602, limits assumed, looked up): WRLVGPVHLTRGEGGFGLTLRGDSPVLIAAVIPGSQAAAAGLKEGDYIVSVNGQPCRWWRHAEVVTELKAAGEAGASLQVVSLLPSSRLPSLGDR
Parameters: key: below the threshold = too weak to quantify, mostly under pKd 3.1 to 4
PMESGICTIV [TTC24, A2A3L6] was tested, and the pKd was 4.85. With GCQGETEDVL [PTH2R, P49190] the pKd was “below the threshold”.

What follows are binders tested against LNX1_3, Q8TBB1 (assay: holdup assay). Conditions: plain residues with an end cap or a label only (N-terminal biotin on a linker: ado-ado).
Sequence of LNX1_3, Q8TBB1 (Q8TBB1 500-596): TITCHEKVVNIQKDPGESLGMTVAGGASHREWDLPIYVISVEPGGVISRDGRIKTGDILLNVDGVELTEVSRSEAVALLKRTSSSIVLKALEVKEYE
Parameters: key: below the threshold = too weak to quantify, mostly under pKd 3.1 to 4
In the case of PMESGICTIV [TTC24, A2A3L6], the pKd is reported as 3.53. For GCQGETEDVL [PTH2R, P49190], the pKd was “below the threshold”.

These binders were tested against SCRIB_1, Q14160 (assay: holdup assay). Conditions: plain residues with an end cap or a label only (N-terminal biotin on a linker: ado-ado).
Sequence of SCRIB_1, Q14160 (Q14160 718-814): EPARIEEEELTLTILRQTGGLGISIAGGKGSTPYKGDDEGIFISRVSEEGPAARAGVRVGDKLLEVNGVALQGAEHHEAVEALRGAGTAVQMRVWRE
Parameters: key: below the threshold = too weak to quantify, mostly under pKd 3.1 to 4
Binder PMESGICTIV [TTC24, A2A3L6] has a pKd of 3.92. GCQGETEDVL [PTH2R, P49190] was tested, and the pKd was “below the threshold”.

The binders below were run against MAGI2_3, Q86UL8 (assay: holdup assay). Conditions: plain residues with an end cap or a label only (N-terminal biotin on a linker: ado-ado).
Sequence of MAGI2_3, Q86UL8 (Q86UL8 600-682): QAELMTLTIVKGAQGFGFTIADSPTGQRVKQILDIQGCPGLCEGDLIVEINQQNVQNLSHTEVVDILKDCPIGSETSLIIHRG
Parameters: key: below the threshold = too weak to quantify, mostly under pKd 3.1 to 4
For PMESGICTIV [TTC24, A2A3L6], the pKd was “below the threshold”. For GCQGETEDVL [PTH2R, P49190], the pKd was “below the threshold”.

Each binder was assayed against T3, DVL3, Q92997 (assay: holdup assay). Conditions: plain residues with an end cap or a label only (N-terminal biotin on a linker: ado-ado).
T3 sequence (Q92997 244-331, limits assumed, looked up): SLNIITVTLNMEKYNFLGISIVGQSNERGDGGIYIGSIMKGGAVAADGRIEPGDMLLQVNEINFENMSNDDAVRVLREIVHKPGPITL
Parameters: key: below the threshold = too weak to quantify, mostly under pKd 3.1 to 4
PMESGICTIV [TTC24, A2A3L6] showed a pKd of 3.65. In the case of GCQGETEDVL [PTH2R, P49190], the pKd is reported as “below the threshold”.

These binders were tested against T4, MPDZ_12, O75970 (assay: holdup assay). Conditions: plain residues with an end cap or a label only (N-terminal biotin on a linker: ado-ado).
T4 sequence (O75970 1857-1958, limits assumed, looked up): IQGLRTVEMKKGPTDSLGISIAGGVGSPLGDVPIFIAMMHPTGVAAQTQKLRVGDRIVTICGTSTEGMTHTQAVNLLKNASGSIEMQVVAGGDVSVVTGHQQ
Parameters: key: below the threshold = too weak to quantify, mostly under pKd 3.1 to 4
For PMESGICTIV [TTC24, A2A3L6], the pKd was “below the threshold”. With GCQGETEDVL [PTH2R, P49190] the pKd was “below the threshold”.

These binders were tested against TJP1_2, Q07157 (assay: holdup assay). Conditions: plain residues with an end cap or a label only (N-terminal biotin on a linker: ado-ado).
Sequence of TJP1_2, Q07157 (Q07157 181-274): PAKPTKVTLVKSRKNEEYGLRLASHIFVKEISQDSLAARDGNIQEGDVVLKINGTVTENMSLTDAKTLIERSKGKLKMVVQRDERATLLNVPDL
Parameters: key: below the threshold = too weak to quantify, mostly under pKd 3.1 to 4
With PMESGICTIV [TTC24, A2A3L6] the pKd was 3.56. In the case of GCQGETEDVL [PTH2R, P49190], the pKd is reported as “below the threshold”.

What follows are binders tested against GRASP, Q7Z6J2 (assay: holdup assay). Conditions: plain residues with an end cap or a label only (N-terminal biotin on a linker: ado-ado).
Sequence of GRASP, Q7Z6J2 (Q7Z6J2 96-193): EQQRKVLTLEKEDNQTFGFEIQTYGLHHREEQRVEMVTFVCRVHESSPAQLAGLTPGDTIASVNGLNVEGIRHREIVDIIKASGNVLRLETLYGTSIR
Parameters: key: below the threshold = too weak to quantify, mostly under pKd 3.1 to 4
Binder PMESGICTIV [TTC24, A2A3L6] has a pKd of 4.65. GCQGETEDVL [PTH2R, P49190] was tested, and the pKd was 3.62.

Each binder was assayed against NHERF4_4, Q86UT5 (assay: holdup assay). Conditions: plain residues with an end cap or a label only (N-terminal biotin on a linker: ado-ado).
Sequence of NHERF4_4, Q86UT5 (Q86UT5 464-550): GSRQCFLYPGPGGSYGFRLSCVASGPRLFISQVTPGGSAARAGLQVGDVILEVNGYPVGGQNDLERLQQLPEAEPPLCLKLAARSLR
Parameters: key: below the threshold = too weak to quantify, mostly under pKd 3.1 to 4
In the case of PMESGICTIV [TTC24, A2A3L6], the pKd is reported as “below the threshold”. For GCQGETEDVL [PTH2R, P49190], the pKd was “below the threshold”.

What follows are binders tested against T5, GRIP1_7, Q9Y3R0 (assay: holdup assay). Conditions: plain residues with an end cap or a label only (N-terminal biotin on a linker: ado-ado).
T5 sequence (Q9Y3R0 999-1096, limits assumed, looked up): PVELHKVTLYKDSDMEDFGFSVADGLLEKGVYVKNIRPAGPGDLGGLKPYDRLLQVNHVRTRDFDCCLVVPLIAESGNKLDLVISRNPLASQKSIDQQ
Parameters: key: below the threshold = too weak to quantify, mostly under pKd 3.1 to 4
In the case of PMESGICTIV [TTC24, A2A3L6], the pKd is reported as “below the threshold”. In the case of GCQGETEDVL [PTH2R, P49190], the pKd is reported as “below the threshold”.

The binders below were run against T6, LRRC7, Q96NW7 (assay: holdup assay). Conditions: plain residues with an end cap or a label only (N-terminal biotin on a linker: ado-ado).
T6 sequence (Q96NW7 1440-1537, limits assumed, looked up): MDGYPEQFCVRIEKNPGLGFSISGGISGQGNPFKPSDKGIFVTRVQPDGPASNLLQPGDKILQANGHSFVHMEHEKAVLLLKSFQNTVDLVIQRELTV
Parameters: key: below the threshold = too weak to quantify, mostly under pKd 3.1 to 4
PMESGICTIV [TTC24, A2A3L6] was tested, and the pKd was “below the threshold”. For GCQGETEDVL [PTH2R, P49190], the pKd was “below the threshold”.

These binders were tested against T7, CARD11, Q9BXL7 (assay: holdup assay). Conditions: plain residues with an end cap or a label only (N-terminal biotin on a linker: ado-ado).
T7 sequence (Q9BXL7 662-765, limits assumed, looked up): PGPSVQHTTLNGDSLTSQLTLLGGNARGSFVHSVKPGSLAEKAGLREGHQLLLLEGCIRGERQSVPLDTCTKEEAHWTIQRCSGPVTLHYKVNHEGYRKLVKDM
Parameters: key: below the threshold = too weak to quantify, mostly under pKd 3.1 to 4
With PMESGICTIV [TTC24, A2A3L6] the pKd was “below the threshold”. In the case of GCQGETEDVL [PTH2R, P49190], the pKd is reported as “below the threshold”.

Each binder was assayed against Inadl_10, Q8NI35 (assay: holdup assay). Conditions: plain residues with an end cap or a label only (N-terminal biotin on a linker: ado-ado).
Sequence of Inadl_10, Q8NI35 (Q8NI35 1673-1763): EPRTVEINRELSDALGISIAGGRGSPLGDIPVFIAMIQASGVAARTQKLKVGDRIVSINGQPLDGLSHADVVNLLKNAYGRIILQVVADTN
Parameters: key: below the threshold = too weak to quantify, mostly under pKd 3.1 to 4
PMESGICTIV [TTC24, A2A3L6] gave a pKd of 3.75. For GCQGETEDVL [PTH2R, P49190], the pKd was “below the threshold”.

Each binder was assayed against GRIP2_5, Q9C0E4 (assay: holdup assay). Conditions: plain residues with an end cap or a label only (N-terminal biotin on a linker: ado-ado).
Sequence of GRIP2_5, Q9C0E4 (Q9C0E4 544-642): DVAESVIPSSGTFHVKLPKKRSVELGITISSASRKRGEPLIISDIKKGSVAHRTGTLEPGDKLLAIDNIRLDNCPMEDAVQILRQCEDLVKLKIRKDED
Parameters: key: below the threshold = too weak to quantify, mostly under pKd 3.1 to 4
PMESGICTIV [TTC24, A2A3L6] was tested, and the pKd was “below the threshold”. For GCQGETEDVL [PTH2R, P49190], the pKd was “below the threshold”.

Each binder was assayed against LNX1_1, Q8TBB1 (assay: holdup assay). Conditions: plain residues with an end cap or a label only (N-terminal biotin on a linker: ado-ado).
Sequence of LNX1_1, Q8TBB1 (Q8TBB1 261-371): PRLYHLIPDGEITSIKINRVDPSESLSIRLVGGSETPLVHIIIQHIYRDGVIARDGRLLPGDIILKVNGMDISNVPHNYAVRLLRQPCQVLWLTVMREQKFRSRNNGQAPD
Parameters: key: below the threshold = too weak to quantify, mostly under pKd 3.1 to 4
PMESGICTIV [TTC24, A2A3L6] gave a pKd of 4.67. With GCQGETEDVL [PTH2R, P49190] the pKd was “below the threshold”.

These binders were tested against T8, LNX2_3, Q8N448 (assay: holdup assay). Conditions: plain residues with an end cap or a label only (N-terminal biotin on a linker: ado-ado).
T8 sequence (Q8N448 463-564, limits assumed, looked up): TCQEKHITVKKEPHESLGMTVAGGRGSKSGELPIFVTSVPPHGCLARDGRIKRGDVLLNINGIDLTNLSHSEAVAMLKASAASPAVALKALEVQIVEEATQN
Parameters: key: below the threshold = too weak to quantify, mostly under pKd 3.1 to 4
With PMESGICTIV [TTC24, A2A3L6] the pKd was “below the threshold”. For GCQGETEDVL [PTH2R, P49190], the pKd was “below the threshold”.

The binders below were run against NHERF4_2, Q86UT5 (assay: holdup assay). Conditions: plain residues with an end cap or a label only (N-terminal biotin on a linker: ado-ado).
Sequence of NHERF4_2, Q86UT5 (Q86UT5 220-308): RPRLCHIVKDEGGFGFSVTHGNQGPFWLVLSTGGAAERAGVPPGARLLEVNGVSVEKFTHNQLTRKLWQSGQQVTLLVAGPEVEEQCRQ
Parameters: key: below the threshold = too weak to quantify, mostly under pKd 3.1 to 4
In the case of PMESGICTIV [TTC24, A2A3L6], the pKd is reported as “below the threshold”. With GCQGETEDVL [PTH2R, P49190] the pKd was “below the threshold”.

What follows are binders tested against PDZRN4_1, Q6ZMN7 (assay: holdup assay). Conditions: plain residues with an end cap or a label only (N-terminal biotin on a linker: ado-ado).
Sequence of PDZRN4_1, Q6ZMN7 (Q6ZMN7 213-318): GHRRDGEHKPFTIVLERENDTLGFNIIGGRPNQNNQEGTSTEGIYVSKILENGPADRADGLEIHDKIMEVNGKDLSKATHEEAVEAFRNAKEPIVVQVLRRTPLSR
Parameters: key: below the threshold = too weak to quantify, mostly under pKd 3.1 to 4
For PMESGICTIV [TTC24, A2A3L6], the pKd was “below the threshold”. With GCQGETEDVL [PTH2R, P49190] the pKd was “below the threshold”.

Each binder was assayed against TJP1_3, Q07157 (assay: holdup assay). Conditions: plain residues with an end cap or a label only (N-terminal biotin on a linker: ado-ado).
Sequence of TJP1_3, Q07157 (Q07157 416-512): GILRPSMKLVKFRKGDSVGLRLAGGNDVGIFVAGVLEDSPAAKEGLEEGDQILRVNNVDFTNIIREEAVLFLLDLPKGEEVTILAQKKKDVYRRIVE
Parameters: key: below the threshold = too weak to quantify, mostly under pKd 3.1 to 4
In the case of PMESGICTIV [TTC24, A2A3L6], the pKd is reported as “below the threshold”. With GCQGETEDVL [PTH2R, P49190] the pKd was “below the threshold”.

What follows are binders tested against NHERF4_1, Q86UT5-2 (assay: holdup assay). Conditions: plain residues with an end cap or a label only (N-terminal biotin on a linker: ado-ado).
Sequence of NHERF4_1, Q86UT5-2 (Q86UT5 other isoform, or with tags, fused parts or gaps): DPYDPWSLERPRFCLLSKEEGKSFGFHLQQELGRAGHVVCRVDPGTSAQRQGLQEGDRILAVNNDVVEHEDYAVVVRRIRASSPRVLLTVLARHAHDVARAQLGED
Parameters: key: below the threshold = too weak to quantify, mostly under pKd 3.1 to 4
PMESGICTIV [TTC24, A2A3L6] gave a pKd of 4.2. For GCQGETEDVL [PTH2R, P49190], the pKd was 3.85.

The binders below were run against MAGI1_2, Q96QZ7 (assay: holdup assay). Conditions: plain residues with an end cap or a label only (N-terminal biotin on a linker: ado-ado).
Sequence of MAGI1_2, Q96QZ7 (Q96QZ7 456-580): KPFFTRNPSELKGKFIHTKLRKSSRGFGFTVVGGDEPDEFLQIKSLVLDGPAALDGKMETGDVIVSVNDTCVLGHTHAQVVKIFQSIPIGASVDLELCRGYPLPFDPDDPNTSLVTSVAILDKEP
Parameters: key: below the threshold = too weak to quantify, mostly under pKd 3.1 to 4
For PMESGICTIV [TTC24, A2A3L6], the pKd was 3.7. With GCQGETEDVL [PTH2R, P49190] the pKd was “below the threshold”.

What follows are binders tested against T9, ARHGEF11, O15085 (assay: holdup assay). Conditions: plain residues with an end cap or a label only (N-terminal biotin on a linker: ado-ado).
T9 sequence (O15085 42-136, limits assumed, looked up): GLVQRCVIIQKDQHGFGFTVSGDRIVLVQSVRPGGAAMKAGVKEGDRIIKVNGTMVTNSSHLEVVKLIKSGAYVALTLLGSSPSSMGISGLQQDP
Parameters: key: below the threshold = too weak to quantify, mostly under pKd 3.1 to 4
In the case of PMESGICTIV [TTC24, A2A3L6], the pKd is reported as 4.85. For GCQGETEDVL [PTH2R, P49190], the pKd was “below the threshold”.

The binders below were run against T10, GRIP1_3, Q9Y3R0 (assay: holdup assay). Conditions: plain residues with an end cap or a label only (N-terminal biotin on a linker: ado-ado).
T10 sequence (Q9Y3R0 247-346, limits assumed, looked up): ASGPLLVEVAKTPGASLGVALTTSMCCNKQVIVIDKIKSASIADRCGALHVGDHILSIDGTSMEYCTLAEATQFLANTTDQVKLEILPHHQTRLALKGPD
Parameters: key: below the threshold = too weak to quantify, mostly under pKd 3.1 to 4
With PMESGICTIV [TTC24, A2A3L6] the pKd was “below the threshold”. In the case of GCQGETEDVL [PTH2R, P49190], the pKd is reported as “below the threshold”.

The binders below were run against IL16_1, Q14005 (assay: holdup assay). Conditions: plain residues with an end cap or a label only (N-terminal biotin on a linker: ado-ado).
Sequence of IL16_1, Q14005 (Q14005 210-306): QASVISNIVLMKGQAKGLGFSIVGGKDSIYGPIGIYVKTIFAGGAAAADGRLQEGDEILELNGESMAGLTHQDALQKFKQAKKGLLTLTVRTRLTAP
Parameters: key: below the threshold = too weak to quantify, mostly under pKd 3.1 to 4
PMESGICTIV [TTC24, A2A3L6] gave a pKd of 3.88. GCQGETEDVL [PTH2R, P49190] was tested, and the pKd was “below the threshold”.

The binders below were run against GIPC2, Q8TF65 (assay: holdup assay). Conditions: plain residues with an end cap or a label only (N-terminal biotin on a linker: ado-ado).
Sequence of GIPC2, Q8TF65 (Q8TF65 112-203): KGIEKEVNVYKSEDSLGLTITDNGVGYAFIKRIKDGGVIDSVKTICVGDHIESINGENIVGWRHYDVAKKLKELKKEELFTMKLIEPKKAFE
Parameters: key: below the threshold = too weak to quantify, mostly under pKd 3.1 to 4
With PMESGICTIV [TTC24, A2A3L6] the pKd was “below the threshold”. GCQGETEDVL [PTH2R, P49190] was tested, and the pKd was “below the threshold”.
